{"source": "patent US20150231232", "biological_target": "human IL-8 (UniProt P10145)", "sequence (P10145 28-99)": "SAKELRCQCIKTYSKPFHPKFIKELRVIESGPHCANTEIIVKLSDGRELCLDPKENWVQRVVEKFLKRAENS", "data": [{"substance": "SpyCEP expressed in the lumen of E. coli OMVs (OMVs containing SpyCEP)", "values": [{"measurement": "hydrolysis of IL-8 (18% SDS-PAGE with silver staining)", "value": "IL-8 was almost completely cleaved after 2 hours incubation with 30 µg OMVs containing SpyCEP"}]}]}
